Experimental data as given in article doi:10.1101/524447 (bioRxiv, 2019).
Non-standard residues stand in square brackets, D forms with d. No end group written: not given here. pY = N[C@@H](Cc1ccc(OP(=O)(O)O)cc1)C(=O)O

Legend:
[1] = target: T1, Syk tandem SH2 (tSH2) fragment, amino acids 9-264 (UniProt P43405 9-264); assay: SPR
[2] = target: T1, Syk tandem SH2 (tSH2) fragment, amino …; assay: thermal shift assay

IC50 [1]: 15 µM | Kd [2]: 4.2 ± 0.68 µM
B1: pITAM peptide from CD3ε chain, doubly phosphorylated (peptide)
peptide: NPD[pY]EPIRKGQRDL[pY]SGLNQR
